From patent US10487331
pKd: −log10 of the molar value.

Key:
[1] = system: surface proteins of Aggregatibacter actinomycetemcomitans (whole cells) (Aggregatibacter actinomycetemcomitans); details: whole-cell binding, real-time PCR of eluted aptamer, SELEX buffer, room temperature
[2] = system: surface proteins of Porphyromonas gingivalis (whole cells) (Porphyromonas gingivalis); details: whole-cell binding, real-time PCR of eluted aptamer, SELEX buffer, room temperature

Sequence | pKd [1] | pKd [2]
TCCCTACGGCGCTAACCGTATGTGTACCCGGTGGGGCGCGATTGACGCCACCGTGCTACAAC [A. actinomycetemcomitans aptamer] | 8.46 | –
TCCCTACGGCGCTAACTGTAACTGGGAGCGGACCTAGGTTACATGAGCCACCGTGCTACAAC [P. gingivalis aptamer] | – | 8.34
